Molecular target: M. tuberculosis LamA (MmpS3, Rv2198c) fused to a 3X-FLAG tag at the carboxy terminus (M. tuberculosis)
Test: SDS-PAGE with western blot

Substance “M. tuberculosis LamA (MmpS3, Rv2198c) fused to a 3X-FLAG tag at the carboxy terminus (natural protein)” has a stoichiometry N of 2.
